Results taken from publication PMC10229695.

Experiments:
[1] = system: NLRP3 WT (human); assay: competition pulldown (streptavidin beads, western blot); settings: elution from biotinylated mtDNA beads, EMSA and pulldown: 50 mM Tris pH 7.4, 100 mM NaCl, 2 mM MgCl2, 12% glycerol, 4 C overnight (EMSA plus 2e-5 mg/ml salmon sperm DNA, 1e-5 uM ox-mtDNA), Fig …
[2] = system: NLRP3 L266F (NOMID, C790T) (human); assay: as above; settings: elution from biotinylated mtDNA beads; oxidized guanine (8-oxoguanine); EMSA and pulldown: 50 mM Tris pH 7.4, 100 mM NaCl, 2 mM MgCl2, 12% glycerol, 4 C overnight (EMSA plus 2e-5 mg/ml salmon sperm DNA, 1e-5 uM ox-mtDNA); Fig …

Substance	IC50 ([1]; R2 0.98, abstract prints 4 nM) [nM]	IC50 ([1]; poor fit, R2 0.6, text prints 247 nM, oxidized guanine (8-oxoguanine)) [nM]	IC50 [2] [nM]
non-oxidized mtDNA competitor (unlabeled)	4.8	–	–
ox-mtDNA competitor (unlabeled)	–	247	8.1
